Consider two substances from patent publication US20230270857A1.

The target of the test is CD3 on ex vivo expanded human T cells (Homo sapiens) (UniProt P07766). Kind of test: flow cytometry referenced to quantum beads. Background: In flow cytometry, cells or beads pass a laser one at a time.

Regarding “GD2-BsAb (hu3F8-BsAb, anti-GD2 hu3F8 x anti-CD3 huOKT3, IgG-[L]-scFv format) (bispecific antibody)”, the molar amount of BsAb bound per T cell (zeptomoles per T cell) fell in the range of 1 to 35.
With “HER2-BsAb (trastuzumab x huOKT3, IgG-[L]-scFv format) (bispecific antibody)” the figure was 1 to 35.
